± gives the uncertainty stated by the source.

A short description of this data set: amyloid nucleation score (Sup35N fusion, yeast selection) (log enrichment); library NNK1; higher = more nucleation; inactive = no reads after selection. The essentials:
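Using DiMSum, nucleation scores were taken as the log enrichment of output over input reads, centred on the mode score of non-aggregating sequences. The input and output reads came from Illumina sequencing of plasmid inserts, with sequences under 100 input reads excluded. The yeast were psi-negative, expressed Sup35N fused to peptides of 20 random codons, were induced with 100 μM copper sulfate for 24 hours, and were grown 7 days at 30°C on medium lacking adenine and uracil.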
In the case of WQLTGISIWARFMFYVWQGK, the amyloid nucleation score is -1.34 ± 0.92.

WRARLWDLNPWHVAREMIAG gave an amyloid nucleation score of 0.096 ± 0.93.

The substance WRGCVNFCEKKPGVGVSSV registered an amyloid nucleation score of 0.076 ± 0.55.

WRTSEFSHSLVKYVLSRVLT returned an amyloid nucleation score of 1.31 ± 0.56.

On to WSARHKHNTKCYFVRGQ, for which the amyloid nucleation score was -0.081 ± 0.34.

WSFVYMENVIARYEVSVG gave an amyloid nucleation score of 0.296 ± 0.25.

The substance WSGIIELC showed an amyloid nucleation score of 1.74 ± 0.78.

WSIKFQS gave an amyloid nucleation score of -0.123 ± 0.49.

WSRCSFFGHRYIKSSLLIWG gave an amyloid nucleation score of -0.139 ± 0.44.

Substance WSSKLFCIGLDLCVVDDMCF had an amyloid nucleation score of 2.44 ± 0.12.

WSSTRPCFLFQLRMAMLLCS showed an amyloid nucleation score of 0.154 ± 0.59.

WSYAIKAISSMGAVTDASRM gave an amyloid nucleation score of -0.136 ± 0.31.

WTAGWL showed an amyloid nucleation score of -0.065 ± 0.44.

Take WTRLLD: the amyloid nucleation score result is “inactive”.

WTRSM: the amyloid nucleation score came to 0.018 ± 0.41.

Substance WVDGESAPDDERRQWICDIG gave an amyloid nucleation score of -0.948 ± 1.3.

As for WVGFRQCLSASMCAPDPQTD, the amyloid nucleation score turned out to be 0.748 ± 0.8.

WVILMMLCILRGRELSVAYW: the amyloid nucleation score was -0.446 ± 0.99.

The substance WVLAVRTSNLCRRGMLYKL showed an amyloid nucleation score of -0.662 ± 0.45.

In turn, WVLGGEFPYKRGGIAASLVL yielded an amyloid nucleation score of -0.327 ± 0.84.

In turn, WVNVTRVNGRDEGAPSIRNK came in with an amyloid nucleation score of -0.787 ± 0.4.

The substance WVSSAAGAAGPVIYWDVALY came in with an amyloid nucleation score of -0.612 ± 0.39.

Regarding WWLRVVS, the amyloid nucleation score is 0.041 ± 0.78.

Regarding WWSYQF, the amyloid nucleation score was 0.725 ± 0.39.

For WYHSYCVVHSFWYATSPLNS, the amyloid nucleation score is -0.259 ± 0.33.

For the substance WYPAANLRLVALIKGVSAVT, the amyloid nucleation score was -2.23 ± 2.4.

YADNSSTLMSDILFTIYRIG registered an amyloid nucleation score of 1.06 ± 0.095.

Substance YAFARCLTHINVVALIVRMC returned an amyloid nucleation score of -1.18 ± 0.64.

For YAHGGWDLVRRNS, the amyloid nucleation score is 0.232 ± 0.86.

For the substance YALFADACSKGALDKVFSWV, the amyloid nucleation score amounted to 0.745 ± 1.2.

YANTTWSLTLTTVQHRNVAD: the amyloid nucleation score was determined as 3.35 ± 0.16.

For the substance YARIAKRTFLVYSQNEARFE, the amyloid nucleation score was found to be 0.843 ± 0.98.

In turn, YASTSMWVP gave an amyloid nucleation score of -0.401 ± 0.35.

The substance YATGDCDVLMYRLGMNKKSS had an amyloid nucleation score of 0.488 ± 0.45.

In turn, YAVCRLANSSGSRHVFLCHT had an amyloid nucleation score of 0.527 ± 0.31.

For YCCYAVRACFN, the amyloid nucleation score turned out to be 7.509 ± 0.057.

Substance YCGGY showed an amyloid nucleation score of 2.9 ± 0.087.

Take YCGSYHLGSFGIYSTVEIYC: the amyloid nucleation score worked out at 1.37 ± 0.9.

The substance YCNGNRKVVEVDFDWILGGG showed an amyloid nucleation score of -0.33 ± 1.1.

As to YDEGHS, the amyloid nucleation score was -0.778 ± 1.2.

On to YDFLPRVNNPLSRNLRHRAL, for which the amyloid nucleation score is -0.071 ± 0.56.

For YDIRL, the amyloid nucleation score is -0.376 ± 0.65.

Substance YDNRSALDWCLGEVMFAST showed an amyloid nucleation score of -0.993 ± 0.35.

The substance YDRVLNLSDSWCTNAAPWWG registered an amyloid nucleation score of 0.394 ± 0.43.

As for YDYGVESLRLVVLCNDLWFL, the amyloid nucleation score was -0.346 ± 0.4.

YDYHRNLSNHFLCFTLNWLT returned an amyloid nucleation score of 5.23 ± 0.072.

On to YEDLSNDYNSNRWIVYALSK, for which the amyloid nucleation score was -0.189 ± 0.24.

On to YEFLIWVCPTALRRVVSSVV, for which the amyloid nucleation score came out at 0.189 ± 0.74.

YEKMTRFNVGKCHMVHFSLP registered an amyloid nucleation score of -0.376 ± 1.4.

Regarding YELKQSL, the amyloid nucleation score is -0.301 ± 0.73.

In the case of YELKSDNLFVRLF, the amyloid nucleation score was -0.706 ± 0.46.

Take YFCPLKCVMPENDCPFPMVM: the amyloid nucleation score was determined as 0.416 ± 0.25.

The substance YFCSSGWANVMLLLSVQTNR came in with an amyloid nucleation score of 0.173 ± 0.35.

YFFVLEFIVCIVMTITSLSC had an amyloid nucleation score of -0.988 ± 0.48.

Take YFGMSY: the amyloid nucleation score was -1.38 ± 0.66.

As for YFKLIVLVGLNAREWRAAMV, the amyloid nucleation score was -0.221 ± 0.4.

As to YFMTHRGLCRCISLSYNFKI, the amyloid nucleation score is -0.957 ± 0.98.

YFQFRDGIFIFYVTF showed an amyloid nucleation score of 0.415 ± 0.64.

In turn, YFRIDAKTWFVSFPVALLPV yielded an amyloid nucleation score of -0.557 ± 0.29.

Turning to YFYDILGCDWKALSGRLIDT, the amyloid nucleation score is -0.603 ± 0.25.

As to YGEPYV, the amyloid nucleation score came to 0.829 ± 0.66.

For the substance YGGLGYSLIGCYADLDGVIL, the amyloid nucleation score was 1.47 ± 0.39.

With YGINAVFLLIDLDERITDYL, the amyloid nucleation score stood at 0.105 ± 0.29.

YGKSYVIDGVVWGRQDSWES displayed an amyloid nucleation score of -0.748 ± 1.6.

Turning to YGLMVVVKVS, the amyloid nucleation score was found to be 6.666 ± 0.043.

YGNYGCLGRWNSLHTCSQIC came in with an amyloid nucleation score of -0.913 ± 0.67.

Regarding YHGRRVPRDVTNQRTMAQCD, the amyloid nucleation score stood at 3.66 ± 0.087.

As to YHIGTVVIPWLKVNRIYRGI, the amyloid nucleation score turned out to be 4.96 ± 0.081.

For the substance YHNGDYCCVQFTTGSWVVRW, the amyloid nucleation score came out at 0.391 ± 0.28.

YHNLVLQSICDCSSLADLGW returned an amyloid nucleation score of 6.66 ± 0.059.

Regarding YHRGIYLFSRSC, the amyloid nucleation score was -0.906 ± 0.88.

In turn, YHTNTGDDPSCPRPSTSYSG registered an amyloid nucleation score of 1.98 ± 0.51.

In the case of YHVRVKYFPWNGTNVTVLDS, the amyloid nucleation score is -0.73 ± 0.32.

YIFSHDKGMRR registered an amyloid nucleation score of 2.49 ± 0.25.

Turning to YIHGGVMCKDPAPFSYFASI, the amyloid nucleation score is -0.114 ± 0.59.

As to YILPEAEHSKGC, the amyloid nucleation score was determined as 0.803 ± 0.63.

On to YILSISYYFPRGMVDIVMFM, for which the amyloid nucleation score is 0.5 ± 0.48.

In the case of YINLDHCRMSSSTA, the amyloid nucleation score stood at 0.85 ± 0.65.

In the case of YINLVLGFSYVFLLGLANRM, the amyloid nucleation score was -0.773 ± 0.24.

Turning to YIPQSPDDSFWEVMFYLFLS, the amyloid nucleation score was -0.43 ± 1.2.

As to YISDSLYGFDEVGRDWLRVA, the amyloid nucleation score was -0.025 ± 0.56.

YISFHTTSYRFRLYRLL gave an amyloid nucleation score of 0.894 ± 0.17.

For the substance YIVYFESRN, the amyloid nucleation score worked out at 0.438 ± 0.16.

YIYDIGGLTHATMRCTCR: the amyloid nucleation score is 0.635 ± 0.49.

Turning to YIYYSNFCPDRLIVFINAMT, the amyloid nucleation score result was “inactive”.

As to YKKGYWSGDVAFVWWFTYMC, the amyloid nucleation score came out at 0.959 ± 0.54.

Consider YKLRFNILASMDNRMKLKWL, for which the amyloid nucleation score is -0.899 ± 0.81.

Regarding YKVCRMCAKGCSDSFRPVRA, the amyloid nucleation score is 0.555 ± 0.48.

Regarding YKVSKMNRRDTNGNLVNRRV, the amyloid nucleation score was -0.211 ± 1.2.

Substance YKYREGGKWPL returned an amyloid nucleation score of -1.3 ± 2.4.

YLCLAECSLSPYNTTLVGGV: the amyloid nucleation score is -1.6 ± 0.81.

YLFAWSWEDGFYTGACRLLA yielded an amyloid nucleation score of 0.006 ± 0.29.

YLGTFN: the amyloid nucleation score entry was “inactive”.

YLICWVIPGSNVGLMVGMTA came in with an amyloid nucleation score of 0.093 ± 1.4.

Substance YLIMGNVFNVAVVGGIGCVE yielded an amyloid nucleation score of 0.345 ± 0.29.

YLNACGSSVRTKVRCSRVIL had an amyloid nucleation score of -0.209 ± 0.91.

For YLPTVIPVFI, the amyloid nucleation score worked out at 0.125 ± 0.98.

Turning to YLRDVRLYCVMRK, the amyloid nucleation score is -0.129 ± 0.38.

With YLVAVVIGSIPAPSRMYSVA, the amyloid nucleation score came out at 0.904 ± 0.51.

Take YLVFMQEITLTKQLLWQSMR: the amyloid nucleation score is -0.224 ± 0.39.

Consider YLVRVMFWLLGRCEA, for which the amyloid nucleation score entry is “inactive”.

The substance YLYAACVVWLMLLPNME gave an amyloid nucleation score of -0.671 ± 1.2.

As for YLYCSVSVYRFERFRRNHSR, the amyloid nucleation score was 0.051 ± 0.3.

The substance YMASDEVNI displayed an amyloid nucleation score of -0.232 ± 0.26.

Turning to YMDGVPG, the amyloid nucleation score was found to be 0.042 ± 1.2.

In turn, YMFWRGLVFKWVV yielded an amyloid nucleation score of 0.667 ± 0.56.

In turn, YMIMQLDACFECLTFQGQY yielded an amyloid nucleation score of 5.9 ± 0.087.

Consider YMISNMVKVVFSSTDRNVGN, for which the amyloid nucleation score is 5.935 ± 0.051.

Substance YMLWSVPRLWCRVWLPTVAC displayed an amyloid nucleation score of 0.585 ± 0.64.

As for YMNLVLTDLAWSIWGG, the amyloid nucleation score was 3.62 ± 0.1.

In turn, YMPRSQIGSTSHVNWREMAE yielded an amyloid nucleation score of -0.311 ± 0.33.

In turn, YMVLVDLRTGRIHGSAGEKR had an amyloid nucleation score of -0.174 ± 0.5.

Substance YNCYNF came in with an amyloid nucleation score of 0.97 ± 0.69.

The substance YNQISLD registered an amyloid nucleation score of -0.38 ± 1.1.

Take YNVSQLVLLNVFTCK: the amyloid nucleation score came to 7.459 ± 0.044.

As to YNVWVWCERGQC, the amyloid nucleation score is 4.5 ± 0.1.

YNYREWFSLIYFCIWDITWS returned an amyloid nucleation score of -1.01 ± 0.41.

YPAPPTNCLRQ: the amyloid nucleation score is -0.449 ± 0.28.

Consider YPCCKICDYIKS, for which the amyloid nucleation score was -0.018 ± 0.23.

For YPGRLRCSRVMSEFVLNSAL, the amyloid nucleation score was -1.27 ± 0.68.

For the substance YQDFYMLSRLAKLGG, the amyloid nucleation score was determined as 0.36 ± 0.61.

The substance YQQPEDCMFECTVVYSSKSR had an amyloid nucleation score of -0.062 ± 0.26.

In turn, YQVYWSVSG returned an amyloid nucleation score of -0.021 ± 0.51.

YQYGAWNSANVSSNN yielded an amyloid nucleation score of 1.19 ± 0.57.

As for YRAAQGHLASELYGLVTV, the amyloid nucleation score was found to be 0.36 ± 0.69.

The substance YRKRYDWWTVEAVLASVFGS showed an amyloid nucleation score of 1.18 ± 0.57.

Take YRLVP: the amyloid nucleation score was -0.186 ± 0.46.

For the substance YRRGKIAWGSTARHETVFIL, the amyloid nucleation score is 0.336 ± 0.52.

In the case of YRSGSMLCNYPSRAVTVCWS, the amyloid nucleation score stood at 1.16 ± 0.38.

Consider YRWSLTLNLL, for which the amyloid nucleation score is -0.651 ± 0.47.

Turning to YRYSSIF, the amyloid nucleation score was -0.954 ± 1.4.

Substance YSAALRHGQRHKWRSGRKIG yielded an amyloid nucleation score of 0.674 ± 1.2.

YSADMFRADGLWFRGSRWG gave an amyloid nucleation score of 0.308 ± 0.57.

The substance YSALVFRYGVISKGDLVTRR gave an amyloid nucleation score of 0.123 ± 0.36.

As for YSCIYKWHECNNVNDNMK, the amyloid nucleation score came out at 0.149 ± 0.46.

YSEYPSLLGRSSGMIDNFKG registered an amyloid nucleation score of 0.597 ± 0.28.

Consider YSFIKCGSMCKEYKPCPTKL, for which the amyloid nucleation score was -0.11 ± 0.51.

YSGNSIFLNLRSSCAYCGGD returned an amyloid nucleation score of 6.35 ± 0.081.

Substance YSGRVTLWIVPMLHARH had an amyloid nucleation score of -0.114 ± 0.42.

YSMHKLSVFRRTYSVTISRT registered an amyloid nucleation score of 0.591 ± 0.55.

YSPFYYVDI showed an amyloid nucleation score of 1.61 ± 0.42.

(Values after the supplement of paper PMC12042874.)
